Laboratory results published in FireProtDB (doi:10.1016/j.jmb.2009.05.011).
Values joined by “and” are separate entries in the source; they are usually repeats but may differ in a detail not shown here. Equal entries are not always repeated.

B1: Dihydrolipoyllysine-residue succinyltransferase component of 2-oxoglutarate dehydrogenase complex, P0AFG6 (parent)
chain: MSSVDILVPDLPESVADATVATWHKKPGDAVVRDEVLVEIETDKVVLEVPASADGILDAVLEDEGTTVTSRQILGRLREGNSAGKETSAKSEEKASTPAQRQQASLEEQNNDALSPAIRRLLAEHNLDASAIKGTGVGGRLTREDVEKHLAKAPAKESAPAAAAPAAQPALAARSEKRVPMTRLRKRVAERLLEAKNSTAMLTTFNEVNMKPIMDLRKQYGEAFEKRHGIRLGFMSFYVKAVVEALKRYPEVNASIDGDDVVYHNYFDVSMAVSTPRGLVTPVLRDVDTLGMADIEKKIKELAVKGRDGKLTVEDLTGGNFTITNGGVFGSLMSTPIINPPQSAILGMHAIKDRPMAVNGQVEILPMMYLALSYDHRLIDGRESVGFLVTIKELLEDPTRLLLDV

Variants of: B1
Settings: Escherichia coli (strain K12), pH 7, structure 1W4H, whole UniProt chain shown
[1] = 10 °C, GdnHCl, CD, 3-[morpholino]propanesulfonic acid 50 mM, NaCl 200 mM
[2] = 10 °C, GdnHCl, Fluorescence, 3-[morpholino]propanesulfonic acid 50 mM, NaCl 200 mM
[3] = Thermal, CD, Potassium phosphate 50 mM, KCl 200 mM

MSSVDILVPDLPESVADATVATWHKKPGDAVVRDEVLVEIETDKVVLEVPASADGILDAVLEDEGTTVTSRQILGRLREGNSAGKETSAKSEEKASTPAQRQQASLEEQNNDALSPAIRRLLAEHNLDASAIKGTGVGGRLTREDVEKGLAKAPAKESAPAAAAPAAQPALAARSEKRVPMTRLRKRVAERLLEAKNSTAMLTTFNEVNMKPIMDLRKQYGEAFEKRHGIRLGFMSFYVKAVVEALKRYPEVNASIDGDDVVYHNYFDVSMAVSTPRGLVTPVLRDVDTLGMADIEKKIKELAVKGRDGKLTVEDLTGGNFTITNGGVFGSLMSTPIINPPQSAILGMHAIKDRPMAVNGQVEILPMMYLALSYDHRLIDGRESVGFLVTIKELLEDPTRLLLDV [H149G]
ddG of mutation (higher = less stable) [1]: 1.87 kcal/mol
denaturant m value [1]: 0.64 kcal/mol/M
denaturant midpoint (higher = more stable) [1]: 1.25 M
unfolding free energy [1]: 0.8 kcal/mol
denaturant m value [2]: 0.45 kcal/mol/M and 0.21 kcal/mol/M
unfolding free energy [2]: 0.93 kcal/mol
Tm [3]: 33.9 °C
ddG of mutation (higher = less stable) [3]: 1.58 kcal/mol
unfolding enthalpy (van 't Hoff) [3]: 8 kcal/mol

MSSVDILVPDLPESVADATVATWHKKPGDAVVRDEVLVEIETDKVVLEVPASADGILDAVLEDEGTTVTSRQILGRLREGNSAGKETSAKSEEKASTPAQRQQASLEEQNNDALSPAIRRLLAEHNLDASAIKGTGGGGRLTREDVEKHLAKAPAKESAPAAAAPAAQPALAARSEKRVPMTRLRKRVAERLLEAKNSTAMLTTFNEVNMKPIMDLRKQYGEAFEKRHGIRLGFMSFYVKAVVEALKRYPEVNASIDGDDVVYHNYFDVSMAVSTPRGLVTPVLRDVDTLGMADIEKKIKELAVKGRDGKLTVEDLTGGNFTITNGGVFGSLMSTPIINPPQSAILGMHAIKDRPMAVNGQVEILPMMYLALSYDHRLIDGRESVGFLVTIKELLEDPTRLLLDV [V137G]
ddG of mutation (higher = less stable) [1]: 0.98 kcal/mol
denaturant m value [1]: 0.73 kcal/mol/M
denaturant midpoint (higher = more stable) [1]: 2.49 M
unfolding free energy [1]: 1.82 kcal/mol
denaturant m value [2]: 0.47 kcal/mol/M and 0.24 kcal/mol/M
unfolding free energy [2]: 2.03 kcal/mol
Tm [3]: 43.1 °C
ddG of mutation (higher = less stable) [3]: 0.84 kcal/mol
unfolding enthalpy (van 't Hoff) [3]: 18 kcal/mol

MSSVDILVPDLPESVADATVATWHKKPGDAVVRDEVLVEIETDKVVLEVPASADGILDAVLEDEGTTVTSRQILGRLREGNSAGKETSAKSEEKASTPAQRQQASLEEQNNDALSPAIRRLLAEHNLDASAIKGAGVGGRLTREDVEKHLAKAPAKESAPAAAAPAAQPALAARSEKRVPMTRLRKRVAERLLEAKNSTAMLTTFNEVNMKPIMDLRKQYGEAFEKRHGIRLGFMSFYVKAVVEALKRYPEVNASIDGDDVVYHNYFDVSMAVSTPRGLVTPVLRDVDTLGMADIEKKIKELAVKGRDGKLTVEDLTGGNFTITNGGVFGSLMSTPIINPPQSAILGMHAIKDRPMAVNGQVEILPMMYLALSYDHRLIDGRESVGFLVTIKELLEDPTRLLLDV [T135A]
ddG of mutation (higher = less stable) [1]: 1.68 kcal/mol
denaturant m value [1]: 0.69 kcal/mol/M
denaturant midpoint (higher = more stable) [1]: 1.51 M
unfolding free energy [1]: 1.04 kcal/mol
unfolding free energy [2]: 0.78 kcal/mol
Tm [3]: 36.4 °C
ddG of mutation (higher = less stable) [3]: 1.36 kcal/mol
unfolding enthalpy (van 't Hoff) [3]: 9 kcal/mol

MSSVDILVPDLPESVADATVATWHKKPGDAVVRDEVLVEIETDKVVLEVPASADGILDAVLEDEGTTVTSRQILGRLREGNSAGKETSAKSEEKASTPAQRQQASLEEQNNDALSPAIRRLLAEHNLDASAIKGTGVGGRLTREDVEKHAAKAPAKESAPAAAAPAAQPALAARSEKRVPMTRLRKRVAERLLEAKNSTAMLTTFNEVNMKPIMDLRKQYGEAFEKRHGIRLGFMSFYVKAVVEALKRYPEVNASIDGDDVVYHNYFDVSMAVSTPRGLVTPVLRDVDTLGMADIEKKIKELAVKGRDGKLTVEDLTGGNFTITNGGVFGSLMSTPIINPPQSAILGMHAIKDRPMAVNGQVEILPMMYLALSYDHRLIDGRESVGFLVTIKELLEDPTRLLLDV [L150A]
ddG of mutation (higher = less stable) [1]: 0.6 kcal/mol and 0.74 kcal/mol
denaturant m value [1]: 0.71 kcal/mol/M and 0.69 kcal/mol/M
denaturant midpoint (higher = more stable) [1]: 3.02 M and 1.98 M
unfolding free energy [1]: 2.14 kcal/mol and 1.37 kcal/mol
unfolding free energy [2]: 2.13 kcal/mol and 1.46 kcal/mol
ddG of mutation (higher = less stable) [3]: 0.57 kcal/mol and 1.18 kcal/mol
unfolding enthalpy (van 't Hoff) [3]: 23 kcal/mol and 18 kcal/mol

MSSVDILVPDLPESVADATVATWHKKPGDAVVRDEVLVEIETDKVVLEVPASADGILDAVLEDEGTTVTSRQILGRLREGNSAGKETSAKSEEKASTPAQRQQASLEEQNNDALSPAIRRLLAEHNLDASAVKGTGVGGRLTREDVEKHLAKAPAKESAPAAAAPAAQPALAARSEKRVPMTRLRKRVAERLLEAKNSTAMLTTFNEVNMKPIMDLRKQYGEAFEKRHGIRLGFMSFYVKAVVEALKRYPEVNASIDGDDVVYHNYFDVSMAVSTPRGLVTPVLRDVDTLGMADIEKKIKELAVKGRDGKLTVEDLTGGNFTITNGGVFGSLMSTPIINPPQSAILGMHAIKDRPMAVNGQVEILPMMYLALSYDHRLIDGRESVGFLVTIKELLEDPTRLLLDV [I132V]
ddG of mutation (higher = less stable) [1]: 0.7 kcal/mol
denaturant m value [1]: 0.73 kcal/mol/M
denaturant midpoint (higher = more stable) [1]: 2.88 M
unfolding free energy [1]: 2.1 kcal/mol
denaturant m value [2]: 0.47 kcal/mol/M
Tm [3]: 44.4 °C
ddG of mutation (higher = less stable) [3]: 0.75 kcal/mol
unfolding enthalpy (van 't Hoff) [3]: 22 kcal/mol
